Laboratory results reported in US20190367578A1 (Novo Nordisk, published 2019).
*1 amine or outer side, *2 acyl side, *3 side chain or, on linkers, in order; H or OH if unused. Where no end group is shown, it is not given here. Side-chain parts run from the residue outwards. [ ]: non-standard residue; d: D form. The star is where a group is joined. C20 diacid = O=C(O)CCCCCCCCCCCCCCCCCCC(=O)*; C18 diacid = O=C(O)CCCCCCCCCCCCCCCCC(=O)*; γGlu = O=C(O)[C@H](CCC(=O)[*:2])N[*:1]; Nle = CCCC[C@H](N)C(=O)O; AEEA = NCCOCCOCC(=O)O; Aib = CC(C)(N)C(=O)O

T1: human GIP receptor (human) (UniProt P48546)
T1 sequence (looked up): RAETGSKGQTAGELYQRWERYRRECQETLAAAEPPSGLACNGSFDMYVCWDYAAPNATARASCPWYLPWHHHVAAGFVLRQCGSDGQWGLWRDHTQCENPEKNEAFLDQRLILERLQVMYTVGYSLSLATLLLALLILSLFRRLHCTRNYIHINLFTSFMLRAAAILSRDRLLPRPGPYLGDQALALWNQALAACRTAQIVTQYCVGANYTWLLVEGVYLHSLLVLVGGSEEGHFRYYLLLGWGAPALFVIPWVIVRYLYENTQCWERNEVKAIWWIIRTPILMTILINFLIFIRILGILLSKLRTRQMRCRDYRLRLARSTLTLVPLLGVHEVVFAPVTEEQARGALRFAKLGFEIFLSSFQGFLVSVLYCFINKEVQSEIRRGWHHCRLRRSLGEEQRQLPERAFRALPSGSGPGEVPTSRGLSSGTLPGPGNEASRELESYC


How the values were obtained:
Assay in all cases: cell-based or functional assay
[1] = biological target: T1, human GIP receptor (human)
[2] = biological target: human GLP-1 receptor (human) (UniProt P43220)
[3] = biological target: human glucagon receptor (human) (UniProt P47871)
human glucagon receptor (human), sequence (P47871 26-477): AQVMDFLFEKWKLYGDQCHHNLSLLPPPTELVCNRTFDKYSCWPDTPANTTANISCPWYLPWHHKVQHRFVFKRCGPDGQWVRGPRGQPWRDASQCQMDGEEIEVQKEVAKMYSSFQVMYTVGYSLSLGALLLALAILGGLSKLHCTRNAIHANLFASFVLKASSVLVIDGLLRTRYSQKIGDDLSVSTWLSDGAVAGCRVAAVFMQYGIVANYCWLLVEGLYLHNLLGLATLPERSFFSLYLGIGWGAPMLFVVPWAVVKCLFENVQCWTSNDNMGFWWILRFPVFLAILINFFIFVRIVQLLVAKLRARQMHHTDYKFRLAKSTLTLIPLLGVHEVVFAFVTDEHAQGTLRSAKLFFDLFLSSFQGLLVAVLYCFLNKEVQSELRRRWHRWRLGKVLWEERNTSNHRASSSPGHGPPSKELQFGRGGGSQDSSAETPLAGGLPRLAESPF

human GLP-1 receptor (human), sequence (P43220 24-463): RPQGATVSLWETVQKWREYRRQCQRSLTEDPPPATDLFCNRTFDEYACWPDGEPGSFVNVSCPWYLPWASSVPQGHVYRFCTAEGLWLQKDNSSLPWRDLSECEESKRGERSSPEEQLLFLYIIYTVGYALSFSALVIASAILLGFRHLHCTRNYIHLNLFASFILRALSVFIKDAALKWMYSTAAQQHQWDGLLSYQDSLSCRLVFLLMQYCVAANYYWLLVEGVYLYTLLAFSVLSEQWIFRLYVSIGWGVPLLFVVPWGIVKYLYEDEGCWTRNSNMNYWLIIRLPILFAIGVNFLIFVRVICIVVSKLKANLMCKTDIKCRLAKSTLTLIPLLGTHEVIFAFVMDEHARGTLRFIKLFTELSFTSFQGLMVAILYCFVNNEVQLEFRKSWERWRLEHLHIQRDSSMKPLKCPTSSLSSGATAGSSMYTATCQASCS

EC50 (pM), hGIP-R CRE Luc, 0.2% HSA [1]	EC50 (pM), hGLP-1-R CRE Luc, 1% HSA (footnote *) [2]	EC50 (pM), hGcg-R CRE Luc, 1% HSA (footnote *) [3]	Binder
22 pM	–	–	Y[Aib]EGTFISDYSIA[Nle]DKIRQQDFVK([γGlu-γGlu-γGlu-4‑(aminomethyl)cyclohexanecarbonyl-C20 diacid])WLLAQKGKEEDWKHNITQ
38.4 pM	–	–	Ac-[dY][Aib]EGTFISDYSIA[Nle]DKIHQQDFVK([γGlu-γGlu-γGlu-4‑(aminomethyl)cyclohexanecarbonyl-C20 diacid])WLLAQKP-NH2
72.5 pM	–	–	Y[Aib]EGTFISDYSIA[Nle]DAIRQQDFVK([γGlu-γGlu-γGlu-C18 diacid])WLLAQKG
91.5 pM	–	–	Ac-[dY]AEGTFISDYSIADDKIRQEDFVK([AEEA-AEEA-γGlu-C18 diacid])WLLAQKG
547 pM	–	–	Ac-[dY]AEGTFISDYSIA[Nle]DKIHQEDFVK([γGlu-γGlu-γGlu-4‑(aminomethyl)cyclohexanecarbonyl-C20 diacid])WLLAQKG
158 pM	–	–	Y[Aib]EGTFISDYSIA[Nle]DKIHQEDFVK([γGlu-γGlu-γGlu-γGlu-C18 diacid])WLLAQKG
14 pM	–	–	Y[Aib]EGTFISDYSIA[Nle]DKIRQQDFVK([AEEA-AEEA-γGlu-4‑(aminomethyl)cyclohexanecarbonyl-C20 diacid])WLLAQKGKEEDWKHNITQ
30.4 pM	–	–	Ac-[dY]AEGTFISDYSIA[Nle]DKIRQQDFVK([AEEA-AEEA-γGlu-C18 diacid])WLLAQKG
252 pM	–	–	Y[Aib]EGTFISDYSIA[Nle]DKIRQEDFVK([γGlu-γGlu-γGlu-4‑(aminomethyl)cyclohexanecarbonyl-C20 diacid])WLLAQKG
266 pM	–	–	Y[Aib]EGTFISDYSIA[Nle]DAIRQQDFVK([γGlu-γGlu-γGlu-4‑(aminomethyl)cyclohexanecarbonyl-C20 diacid])WLLAQKG
9.4 pM	–	–	Y[Aib]EGTFISDYSIA[Nle]DKIRQ[Aib]DFVK([γGlu-γGlu-γGlu-C18 diacid])WLLAQKG
71.2 pM	–	–	Ac-[dY]AEGTFISDYSIA[Nle]DKIHQQDFVK([γGlu-γGlu-γGlu-4‑(aminomethyl)cyclohexanecarbonyl-C20 diacid])WLLAQKP-NH2
48.9 pM	–	–	Ac-[dY]AEGTFISDYSIA[Nle]DKIRQQDFVK([γGlu-γGlu-γGlu-C18 diacid])WLLAQKG
21.3 pM	> 100000 pM	> 100000 pM	Y[Aib]EGTFISDYSIA[Nle]DKIHQQDFVK([γGlu-γGlu-γGlu-C18 diacid])WLLAQKGKENDWKHNITQ
76.2 pM	–	–	Ac-[dY]AEGTFISDYSIA[Nle]DKIRQQDFVK([γGlu-γGlu-γGlu-4‑(aminomethyl)cyclohexanecarbonyl-C20 diacid])WLLAQKP-NH2
25 pM	–	–	Ac-[dY]AEGTFISDYSIA[Nle]DKIRQEDFVK([AEEA-AEEA-γGlu-C18 diacid])WLLAQKG
